According to US20090291081A1 (AbbVie / Abbott, published 2009):

T1: human IL-1α (human, UniProt P01583 113-271)
T1 construct: also called IL-1alpha; hIL-1α
T1 sequence (looked up): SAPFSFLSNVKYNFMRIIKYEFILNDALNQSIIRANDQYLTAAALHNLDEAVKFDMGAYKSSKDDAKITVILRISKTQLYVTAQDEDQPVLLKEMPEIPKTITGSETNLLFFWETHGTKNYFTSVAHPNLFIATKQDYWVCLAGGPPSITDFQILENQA


Molecular target: T1, human IL-1α
Experiment: Table 62 IC50; RBA presumed

Row | Binder | IC50 [nM]
1 | ABT1-95-35 (other, VK dAb) VL: DIQMTQSPSSLSASVGDRVTITCRASGPIVRNLRWYQQKPGKAPKLLIYSSSYLEPGVPSRFSGSGSGTDFTLTISSLQPEDFATYHCQQGYRWPVTFGQGTKVEIKR | 0.2
2 | ABT1-95-42 (other, VK dAb) VL: DIQMTQSPSSLSASVGDRVTITCRASFPIVRNLRWYQQKPGKAPKLLIYSSSYLEPGVPSRFSGSGSGTDFTLTISSLQPEDFATYHCQQGYRWPVTFGQGTKVEIKR | 0.1
3 | ABT1-95-75 (other, VK dAb) VL: DIQMTQSPSSLSASVGDRVTITCRASQPIVRNLRWYQQKPGKAPKLLIYSASYLEPGVPSRFSGSGSGTDFTLTISSLQPEDFATYHCQQGYRWPVTFGQGTKVEIKR | 0.3
4 | ABT1-95-50 (other, VK dAb) VL: DIQMTQSPSSLSASVGDRVTITCRASQPIPRNLRWYQQKPGKAPKLLIYSSSYLEPGVPSRFSGSGSGTDFTLTISSLQPEDFATYHCQQGYRWPVTFGQGTKVEIKR | 0.5
5 | ABT1-95-89 (other, VK dAb) VL: DIQMTQSPSSLSASVGDRVTITCRASQPIVRNLRWYQQKPGKAPKLLIYSSSLLEPGVPSRFSGSGSGTDFTLTISSLQPEDFATYHCQQGYRWPVTFGQGTKVEIKR | 0.3
6 | ABT1-95-70 (other, VK dAb) VL: DIQMTQSPSSLSASVGDRVTITCRASQPIVRNLRWYQQKPGKAPKLLVYGSSYLEPGVPSRFSGSGSGTDFTLTISSLQPEDFATYHCQQGYRWPVTFGQGTKVEIKR | 0.1
7 | ABT1-95-101 (other, VK dAb) VL: DIQMTQSPSSLSASVGDRVTITCRASQPIVRNLRWYQQKPGKAPKLLVYSSSLLEPGVPSRFSGSGSGTDFTLTISSLQPEDFATYHCQQGYRWPVTFGQGTKVEIKR | 0.5
8 | ABT1-95-55 (other, VK dAb) VL: DIQMTQSPSSLSASVGDRVTITCRASQPIVHNLRWYQQKPGKAPKLLIYSSSYLEPGVPSRFSGSGSGTDFTLTISSLQPEDFATYHCQQGYRWPVTFGQGTKVEIKR | 0.6
9 | ABT1-95-95 (other, VK dAb) VL: DIQMIQSPSSLSASVGDRVTITCRASQPIVRNLRWYQQKPGKAPKLLIYSSSQLEPGVPSRFSGSGSGTDFTLTISSLQPEDFATYHCQQGYRWPVTFGQGTKVEIKR | 0.3
10 | ABT1-95-98 (other, VK dAb) VL: DIQMTQSPSSLSASVGDRVTITCRASQPIVRNLRWYQQKPGKAPKLLIYSSSALEPGVPSRFSGSGSGTDFTLTISSLQPEDFATYHCQQGYRWPVTFGQGTKVEIKR | 0.8
11 | ABT1-95-46 (other, VK dAb) VL: DIQMTQSPSSLSASVGDRVTITCRASSPIVQNLRWYQQKPGKAPKLLIYSSSYLEPGVPSRFSGSGSGTDFTLTISSLQPEDFATYHCQQGYRWPVTFGQGTKVEIKR | 0.8
12 | ABT1-95-71 (other, VK dAb) VL: DIQMTQSPSSLSASVGDRVTITCRASQPIVRNLRWYQQKPGKAPKLLIYNSSYLEPGVPSRFSGSGSGTDFTLTISSLQPEDFATYHCQQGYRWPVTFGQGTKVEIKR | 1
13 | ABT1-95-72 (other, VK dAb) VL: DIQMTQSPSSLSASVGDRVTITCRASQPIVRNLRWYQQKPGKAPKLLIYHSSYLEPGVPSRFSGSGSGTDFTLTISSLQPEDFATYHCQQGYRWPVTFGQGTKVEIKR | 1
14 | ABT1-95-96 (other, VK dAb) VL: DIQMTQSPSSLSASVGDRVTIACRASQPIVRNLRWYQQKPGKAPKLLIYSSSRLEPGVPSRFSGSGSGTDFTLTISSLQPEDFATYHCQQGYRWPVTFGQGTKVEIKR | 0.1
15 | ABT1-95-76 (other, VK dAb) VL: DIQMTQSPSSLSASVGDRVTITCRASQPIVRNLRWYQQKPGKAPKLLIYSGSYLEPGVPSRFSGSGSGTDFTLTISSLQPEDFATYHCQQGYRWPVTFGQGTKVEIKR | 0.3
16 | ABT1-95-39 (other, VK dAb) VL: DIQMTQSPSSLSASVGDRVTITCRASQPIVRNLRWYQQKPGKAPKLLIYSSSYLEPGVPSRFSGSGSGTDFTLTISGLQPEDFATYHCQQGYRWPVTFGQGTKVEIKR | 0.2
17 | ABT1-95-57 (other, VK dAb) VL: DIQMTQSPSSLSASVGDRVTITCRASQPIVENLRWYQQKPGKAPKLLIYSSSYLEPGVPSRFSGSGSGTDFTLTISSLQPEDFATYHCQQGYRWPVTFGQGTKVEIKR | 0.6
18 | ABT1-95-93 (other, VK dAb) VL: DIQMTQSPSSLSASVGDRVTITCRASQPIVRNLRWYQQKPGKAPKLLIYSSSILEPGVPSRFSGGGSGTDFTLTISSLQPEDFATYHCQQGYRWPVTFGQGTKVEIKR | 0.1
19 | ABT1-95-54 (other, VK dAb) VL: DIQMTQSPSSLSASVGDRVTITCRASQPIVTNLRWYQQKPGKAPKLLIYSSSYLEPGVPSRFSGSGSGTDFTLTISSLQPEDFATYHCQQGYRWPVTFGQGTKVEIKR | 1
20 | ABT1-95-78 (other, VK dAb) VL: DIQMTQSPSSLSASVGDRVTITCRASQPIVRNLRWYQQKPGKAPKLLIYSESYLEPGVPSRFSGSGSGTDFTLTISSLQPEDFATYHCQQGYRWPVTFGQGTKVEIKR | 0.3

The next lines start with the values.

Row | IC50 [nM] | Binder
21 | 0.3 | ABT1-95-77 (other, VK dAb) VL: DIQMTQSPSSLSASVGDRVTITCRASQPIVRNLRWYQQKPGKAPELLIYSGSYLEPGVPSRFSGSGSGTDFTLTISSLQPEDFATYHCQQGYRWPVTFGQGTKVEIKR
22 | 0.3 | ABT1-95-59 (other, VK dAb) VL: DIQMTQSPSSLSASVGDRVTITCRASQPIVKNLRWYQQKPGKAPKLLIYSSSYLEPGVPSRFSGSGSGTDFTLTISSLQPEDFATYHCQQGYRWPVTFGQGTKVEIKR
23 | 0.7 | ABT1-95-60 (other, VK dAb) VL: DIQMTQSPASLSASVGDRVTITCRASQPIVANLRWYQQKPGKAPKLLIYSSSYLEPGVPSRFSGSGSGTDFTLTISSLQPEDFATYHCQQGYRWPVTFGQGTKVEIKR
24 | 0.3 | ABT1-95-53 (other, VK dAb) VL: DIQMTQSPSSLSASVGDRVTITCRASQPIVANLRWYQQKPGKAPKLLIYSSSYLEPGVPSRFSGSGSGTDFTLTISSLQPEDFATYHCQQGYRWPVTFGQGTKVEIKR
25 | 0.2 | ABT1-95-65 (other, VK dAb) VL: DIQMTQSPSSLSASVGDRVTITCRASQPIVRNLRWYQQKPGKAPKLLIYGSSYLEPGVPSRFSGSGSGTDFTLTISSLQPEDFATYHCQQGYRWPVTFGQGTKVEIKR
26 | 0.5 | ABT1-95-90 (other, VK dAb) VL: DIQMTQSPSSLSASVGDRVTITCRASQPIVRNLRWYQQKPGKAPKLLIYSSSQLEPGVPSRFSGSGSGTDFTLTISSLQPEDFATYHCQQGYRWPVTFGQGTKVEIKR
27 | 0.2 | ABT1-95-83 (other, VK dAb) VL: DIQMTQSPSSLSASVGDRVTITCRASQPIVRNLRWYQQKPGKAPKLLIYSSSYLEPGVPPRFSGSGSGTDFTLTISSLQPEDFATYHCQQGYRWPVTFGQGTKVEIKR
28 | 0.2 | ABT1-95-87 (other, VK dAb) VL: DIQMTQSPSSLSASVGDRVTITCRASQPIVRNLRWYQQKPGKAPKLLIYSSSRLEPGVPSRFSGSGSGTDFTLTISSLQPEDFATYHCQQGYRWPVTFGQGTKVEIKR
29 | 0.6 | ABT1-95-58 (other, VK dAb) VL: DIQMTQSPSSLSASVGDRVTITCRARQPIVSNLRWYQQKPGKAPKLLIYSSSYLEPGVPSRFSGSGSGTDFTLTISSLQPEDFATYHCQQGYRWPVTFGQGTKVEIKR
30 | 3 | ABT1-95-73 (other, VK dAb) VL: DIQMTQSPSSLSASVGDRVTITCRASQPIVRNLRWYQQKPGKAPKLLIYQSSYLEPGVPSRFSGSGSGTDFTLTISSLQPEDFATYHCQQGYRWPVTFGQGTKVEIKR
31 | 0.6 | ABT1-95-63 (other, VK dAb) VL: DIQMTQSPSSLSASVGDRVTITCRASQPIVRNLRWYQQKLGKAPKLLIFSSSYLEPGVPSRFSGSGSGTDFTLTISSLQPEDFATYHCQQGYRWPVTFGQGTKVEIKR
32 | 0.3 | ABT1-95-74 (other, VK dAb) VL: DIQMTQSPSSLSASVGDRVTITCRASQPIVRNLRWYQQRPGKAPKLLIYSGSYLEPGVPSRFSGSGSGTDFTLTISSLQPEDFATYHCQQGYRWPVTFGQGTKVEIKR
33 | 0.3 | ABT1-95-91 (other, VK dAb) VL: DIQMTQSPSSLSASVGDRVTITCRASQPIVRNLRWYQQKPGKAPKLLIYSSSNLEPGVPSRFSGSGSGTDFTLTISSLQPEDFATYHCQQGYRWPVTFGQGTKVEIKR
34 | 1 | ABT1-95-52 (other, VK dAb) VL: DIQMTQSPSSLSASVGDRVTITCRASQPIVSNLRWYQQKPGKAPKLLIYSSSYLEPGVPSRFSGSGSGTDFTLTISSLQPEDFATYHCQQGYRWPVTFGQGTKVEIKR
35 | 1 | ABT1-95-69 (other, VK dAb) VL: DIQMTQSPSSLSASVGDRVTITCRASQPIVRNLRWYQQKPGKAPKLLIYKSSYLEPGVPSRFSGSGSGTDFTLTISSLQPEDFATYHCQQGYRWPVTFGQGTKVEIKR
36 | 0.1 | ABT1-95-94 (other, VK dAb) VL: DIQMTQSPSSLSASVGDRVTITCRASQPIVRNLRWYQQKPGKAPKLLIYSSSSLEPGVPSRFSGSGSGTDFTLTISSLQPEDFATYHCQQGYRWPVTFGQGTKVEIKR
